Measured values: patent US9540424B2, “Serum albumin binding molecules” (BRISTOL-MYERS SQUIBB COMPANY, priority 2010, dated 2017)
“And” between values parts separate entries of the source, which are not always exact repeats. Equal values may be shown once. Blank lines part the entries; values can stand above or below the molecule they belong to.

Columns and labels:
[1] = test system: HEK cells stably expressing human β-klotho; test: HEK β-Klotho pERK 1/2 assay; format: cell-based; settings: same dilutions as in parental HEK cells
Procedure: FGF21 induces ERK phosphorylation in the presence of β-klotho. Accordingly, the present HEK-β-klotho assay system was constructed to examine the functional activity of the FGF21-SABA fusions in vitro. Specifically, in vitro activity, potency (EC50) and efficacy (as a percentage of maximal activity observed from an FGF21 molecule that is not fused to a SABA), were determined for the SABA1-FGF21v1 (SEQ ID NO: 132) fusion protein, as measured in the HEK β-Klotho expressing stable cell pERK 1/2 assay using the non-fused His-tagged FGF21 (“FGFv1”; SEQ ID NO: 125) as a comparator.
A HEK cell line stably expressing human β-klotho was constructed. The human β-klotho construct encoded the full length protein under the control of a CMV promoter with a C-terminal FLAG tag. HEK 293 cells were transfected with the linearized cDNA using Lipofectamine 2000 (Invitrogen catalog #11668027) following the manufactures protocol using standard techniques. Positive clones were isolated after 14 days of selection in 600 ug/ml (Invitrogen catalog #10131) of geneticin in Dulbecco's Modified Eagle Medium with high glucose containing L-Glutamine, Hepes (Invitrogen catalog #12430054) and 10% FBS (HyClone catalog # SH30071). Positive stable clones were further characterized by Western Blot analysis and p-ERK activation by AlphaScreen (Perkin Elmer catalog # TGRES50K) analysis.
HEK cells stably expressing human β-klotho were plated at 20,000 cells/well in 96 well tissue culture plates in DMEM high glucose media (Gibco) containing 10% (v/v) FBS (Hyclone) and 600 μg/ml G418 (Gibco). The following day, the media was removed and replaced with DMEM high glucose media without serum and the cells were incubated overnight. The morning of the third day the serum free media was removed and the cells were incubated for a total of seven minutes with dilutions of the proteins made in PBS containing 3% (w/v) fatty acid free human serum albumin. Dilutions were tested in triplicate, one well on each of three plates. At the end of the seven minute incubation, the protein dilutions were removed and 100 μl of 1x AlphaScreen lysis buffer (Perkin-Elmer) was added per well and allowed to incubate with shaking for approximately 10-15 minutes. The plates containing the cellular lysates were frozen at −80° C. for at least 30 minutes or until ready to assay. Four μl from each well of thawed cell lysate was analyzed for pERK 1/2 using the Surefire AlphaScreen pERK 1/2 kit (Perkin Elmer) using 384 well white Proxiplates (Perkin Elmer) following the manufacturer's directions. Plates were incubated at room temperature for two hours in the dark and then read on an Envision 2103 Multiplate reader (Perkin Elmer). Data were analyzed using Graph Pad Prism software using a non-linear regression analysis.

[2] = test system: parental HEK cells, which do not express β-klotho; test: pERK 1/2 specificity assay in parental HEK cells; format: cell-based, human
Text: FGF1 was used as a positive control in those experiments.

CySA = target: T1, CySA (Macaca fascicularis, UniProt A2V9Z4); test: SPR (Biacore T100) kinetics of FGF21-SABA1 fusions: CySA; format: binding, cynomolgous monkey; settings: 37° C.
T1 construct: purchased Equitech-Bio CMSA
T1 sequence (A2V9Z4 25-608): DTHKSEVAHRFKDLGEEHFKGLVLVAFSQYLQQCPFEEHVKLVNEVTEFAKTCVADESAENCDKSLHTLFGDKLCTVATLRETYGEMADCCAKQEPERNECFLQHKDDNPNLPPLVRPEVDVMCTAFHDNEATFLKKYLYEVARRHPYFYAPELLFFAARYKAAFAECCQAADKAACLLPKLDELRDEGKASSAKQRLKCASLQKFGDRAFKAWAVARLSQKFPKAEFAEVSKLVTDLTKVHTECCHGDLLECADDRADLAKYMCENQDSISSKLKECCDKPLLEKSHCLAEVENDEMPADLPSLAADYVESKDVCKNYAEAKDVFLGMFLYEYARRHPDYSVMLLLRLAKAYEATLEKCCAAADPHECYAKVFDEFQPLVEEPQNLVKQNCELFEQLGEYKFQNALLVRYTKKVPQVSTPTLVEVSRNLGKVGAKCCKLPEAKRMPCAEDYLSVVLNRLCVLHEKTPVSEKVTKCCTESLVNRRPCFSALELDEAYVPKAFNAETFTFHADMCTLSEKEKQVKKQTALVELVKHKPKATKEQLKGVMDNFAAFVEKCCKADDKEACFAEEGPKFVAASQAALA
Procedure: (§1) The binding competency and thermodynamic characterization of FGF21-SABA fusion variants to human serum albumin were performed using Isothermal Titration calorimetry on a Microcal VP-ITC instrument (Microcal Inc. Amherst Mass., USA). […] The detailed experimental conditions are described below.
(§2) For the calorimetry assay, the FGF21-SABA variant SABA1-FGF21v1 (SEQ ID NO: 132) was used. […] For the SPR studies, SABA1-FGF21v1 and SABA1-FGF21v3 (SEQ ID NO: 134) were examined.
(§3) Serum albumins were dissolved in PBS buffer (10 mM sodium phosphate, 130 mM sodium chloride, pH 7.1) to a concentration of 10 mg/ml, and subsequently diluted to 8-10 μg/ml in 10 mM sodium acetate pH 5.0 for immobilization. Serum albumins were immobilized on a Series S CMS sensor chip using standard ethyl(dimethylaminopropyl) carbodiimide (EDC)/N-hydroxysuccinimide (NHS) chemistry in HBS-EP+ running buffer at 25° C., following general manufacturer guidelines. Flow cell 1 was activated with EDC/NHS and blocked with ethanolamine. […] Kinetic experiments were performed in PBS buffer containing 0.05% tween-20 (running buffer) at either 25° C. or 37° C. […] These samples were injected across flow cells 1-4 for 300 s, with a 420 s dissociation time, at flow rates of 30 μl/min or 60 μl/min to check for mass transfer limitation. All surfaces were regenerated with 2 pulses of 10 mM glycine pH 2.0 at 30 μl/min for 30 s. Raw sensograms were “double-referenced” by subtracting flow cell 1 data from flow cell 2, 3 or 4 data, and then subtracting a separate buffer cycle from each sensogram. The double-referenced sensogram data was fitted to a 1:1 Langmuir model using Biacore T100 Evaluation software version 2.0.2 to determine the association rate constant (ka), the dissociation rate constant (kd), and the equilibrium dissociation constant (KD).

[3] = Pharmacokinetics of His-tagged FGF21 and SABA-FGF21 fusions in monkeys; format: in vivo, cynomolgus monkeys; settings: monkeys
Procedure: Various in vivo studies were conducted in mice and monkeys to characterize the pharmacokinetics of His-tagged FGF21 and SABA1-FGF21v1. An ELISA-based ligand binding assay was used to measure the His-tagged FGF21 and SABA1-FGF21v1 in all mouse and monkey plasma samples.
Following subcutaneous administration, His-tagged FGF21 was well absorbed.
Following subcutaneous administration, SABA1-FGF21v1 was well absorbed.

HSA [4] = target: T2, HSA (Homo sapiens, UniProt P02768); test: SPR (Biacore T100) kinetics of FGF21-SABA1 fusions: HSA; format: binding; settings: 37° C.
Procedure: as §1, §2, §3

MuSA [5] = target: T3, MuSA (Mus musculus, UniProt P07724); test: SPR (Biacore T100) kinetics of FGF21-SABA1 fusions: MuSA; format: binding, murine; set-up: purchased Sigma A3559; settings: 37° C., up to 1 uM analyte
T3 sequence (P07724 25-608): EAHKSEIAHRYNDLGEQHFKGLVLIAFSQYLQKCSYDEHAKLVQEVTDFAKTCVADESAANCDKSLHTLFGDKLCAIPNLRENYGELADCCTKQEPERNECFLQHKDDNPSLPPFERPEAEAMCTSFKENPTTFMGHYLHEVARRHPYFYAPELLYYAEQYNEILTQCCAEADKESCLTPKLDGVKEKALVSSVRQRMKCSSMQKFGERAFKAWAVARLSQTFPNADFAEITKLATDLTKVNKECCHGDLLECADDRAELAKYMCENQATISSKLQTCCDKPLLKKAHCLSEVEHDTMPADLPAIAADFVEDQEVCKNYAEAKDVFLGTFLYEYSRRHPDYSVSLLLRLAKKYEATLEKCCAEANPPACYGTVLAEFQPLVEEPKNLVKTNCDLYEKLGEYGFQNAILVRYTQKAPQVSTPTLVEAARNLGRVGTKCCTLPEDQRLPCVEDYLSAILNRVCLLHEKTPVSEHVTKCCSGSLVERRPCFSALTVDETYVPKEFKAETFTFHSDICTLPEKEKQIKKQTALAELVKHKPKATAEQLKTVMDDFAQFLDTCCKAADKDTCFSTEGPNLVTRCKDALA
Procedure: as §1, §2, §3

RhSA = RhSA (Macaca mulatta, UniProt Q28522); test: Biacore kinetics of SABAs on immobilized serum albumin: RhSA; format: binding, rhesus
Chain of RhSA (Q28522 17-600): as the sequence (A2V9Z4 25-608) above
Procedure: (§4) In addition, binding to albumin was carried out under various pH conditions ranging from pH 5.5 to pH 7.4.

[6] = Single dose pharmacokinetics of SABA1.1 and SABA5.1 in cynomolgus monkeys; format: in vivo; settings: 1 mpk IV
Procedure: The pharmacokinetics were evaluated using a quantitative ELISA-based assay that was developed to detect the Adnectin™ in plasma samples.

[7] = Analytical size exclusion chromatography (SEC) of SABAs; format: physicochemical; settings: midscaled material
Procedure: Size exclusion chromatography (SEC) was performed on the SABAs resulting from the HTPP. SEC of HTPP derived material was performed using a Superdex 200 5/150 or Superdex 75 5/150 column (GE Healthcare) on an Agilent 1100 or 1200 HPLC system with UV detection at A214 nm and A280 nm and with fluorescence detection (excitation=280 nm, emission=350 nm). A buffer of 100 mM sodium sulfate, 100 mM sodium phosphate, 150 mM sodium chloride, pH 6.8 at appropriate flow rate of the SEC column employed. Gel filtration standards (Bio-Rad Laboratories, Hercules, Calif.) were used for molecular weight calibration.
Midscale expression and purification yielded highly pure and active Adnectins™ that were expressed in a soluble form and purified from the soluble fraction of the bacterial cytosol.
Standard size exclusion chromatography (SEC) was performed on the candidate SABAs resulting from the midscale process. SEC of midscaled material was performed using a Superdex 200 10/30 or on a Superdex 75 10/30 column (GE Healthcare) on an Agilent 1100 or 1200 HPLC system with UV detection at A214 nm and A280 nm and with fluorescence detection (excitation=280 nm, emission=350 nm). A buffer of 100 mM sodium sulfate, 100 mM sodium phosphate, 150 mM sodium chloride, pH 6.8 at appropriate flow rate of the SEC column employed. Gel filtration standards (Bio-Rad Laboratories, Hercules, Calif.) were used for molecular weight calibration.

[8] = Differential Scanning calorimetry (DSC) thermostability of midscaled SABAs; format: physicochemical; settings: 1 mg/ml solution, 5° C. to 95° C. at 1 degree per minute
Procedure: Differential Scanning calorimetry (DSC) analyses of the midscaled SABAs were performed to determine their respective Tm's. A 1 mg/ml solution was scanned in a N-DSC II calorimeter (calorimetry Sciences Corp) by ramping the temperature from 5° C. to 95° C. at a rate of 1 degree per minute under 3 atm pressure. The data was analyzed vs. a control run of the appropriate buffer using a best fit using Orgin Software (OrginLab Corp).

MuSA [9] = target: T3, MuSA; test: Biacore kinetics of SABAs on immobilized serum albumin: MuSA; format: binding
HSA [10] = target: T2, HSA
Procedure: as §4

[11] = Half-life of HSA and of SABA1-4 with or without HSA in mice (ELISA, WinNonlin); format: in vivo, Ncr nude female mice; settings: for half-life in mice plasma: injected without HSA; for increase in half life when co-injected with HSA: with HSA vs without HSA, mice
Procedure: The pharmacokinetic parameters of each Adnectin™ were determined using non-compartmental modeling with WinNonlin software.

[12] = intravenous, His-tagged FGF21 0.5 mg/kg, SABA1-FGF21v1 0.08 mg/kg
[13] = co-injected with HSA (3-4 molar excess), tail vein

Molecule: FGF1: positive control in the pERK specificity assays [reference compound]
activity in HEK β-klotho stable cells (specificity experiment) [1]: showed activity | stimulation of pERK 1/2 levels in parental HEK cells [2]: did

B1: SABA1-FGF21v3: SABA1-FGF21 fusion, SEQ ID NO: 134; 299 aa; DNA SEQ ID NO: 177 (protein)
chain: MGVSDVPRDLEVVAATPTSLLISWHSYYEQNSYYRITYGETGGNSPVQEFTVPYSQTTATISGLKPGVDYTITVYAVYGSKYYYPISINYRTEIDKPSQHHHHHHGSGSGSGSGSGSGSPIPDSSPLLQFGGQVRQRYLYTDDAQQTEAHLEIREDGTVGGAADQSPESLLQLKALKPGVIQILGVKTSRFLCQRPDGALYGSLHFDPEACSFRELLLEDGYNVYQSEAHGLPLHLPGNKSPHRDPAPRGPARFLPLPGLPPALPEPPGILAPQPPDVGSSDPLSMVGPSQGRSPSYAS
ka (CySA; flow rate 30 μl/min): 5310 M⁻¹ s⁻¹ | kd (CySA; flow rate 30 μl/min): 0.0117 s⁻¹ | ka (CySA; flow rate 60 μl/min): 4380 M⁻¹ s⁻¹ | kd (CySA; flow rate 60 μl/min): 0.0136 s⁻¹ | increase of t1/2 compared to His-tagged FGF21 [3]: ~27 fold | CL (total body plasma clearance, CLTp) [3, 12]: 2.4 mL/h/kg | T½ (terminal half-life) [3, 12]: 52.7 h | Vdss (steady-state volume of distribution, Vss) [3, 12]: 0.11 L/kg | ka (HSA [4]; flow rate 30 μl/min): 6160 M⁻¹ s⁻¹ | kd (HSA [4]; flow rate 30 μl/min): 0.00103 s⁻¹ | ka (HSA [4]; flow rate 60 μl/min): 5870 M⁻¹ s⁻¹ | kd (HSA [4]; flow rate 60 μl/min): 0.00107 s⁻¹ | binding to MuSA (MuSA [5]; flow rate 30 μl/min): no binding observed up | binding to MuSA (MuSA [5]; flow rate 60 μl/min): no binding observed up

B2: SABA1.1: core SABA1 with N-terminal MGVSDVPRDLE, C-terminal EIDKPSQ and His6 tag; SEQ ID NO: 89 (protein)
chain: MGVSDVPRDLEVVAATPTSLLISWHSYYEQNSYYRITYGETGGNSPVQEFTVPYSQTTATISGLKPGVDYTITVYAVYGSKYYYPISINYRTEIDKPSQHHHHHH
cross reaction with RhSA (RhSA): cross reacted | AUCall ([6]; individual monkeys #1 and #2): 673.7 µg·h/mL and 625.1 µg·h/mL | Cl_obs ([6]; individual monkeys #1 and #2): 1.45 mL/h/kg and 1.60 mL/h/kg | Cmax ([6]; individual monkeys #1 and #2): 9030 ng/mL and 7240 ng/mL | Vz_obs ([6]; individual monkeys #1 and #2): 0.2008 L/kg and 0.3152 L/kg | t½ ([6]; individual monkeys #1 and #2): 95.8 h and 136.6 h | SEC Dimer (%) [7]: 7.7% | SEC Monomer (%) [7]: 92.3% | DSC (Tm) [8]: 63.9 °C | cross reaction with MuSA (MuSA [9]): did not cross react | Resistant to pH 7.4→5.5? (HSA [10]; binding to HSA from pH 7.4 down to pH 5.5, symbols not defined): fits biochemical criteria for pH resistance and affinity/kinetics down to pH 5.5 | PK (T½) Mice [11, 13]: 5.6 h | half-life in mice plasma [11]: 0.56 h | increase in half life when co-injected with HSA [11]: ~10 fold

Second part, led by results:

cross reaction with RhSA (RhSA): cross reacted | cross reaction with MuSA (MuSA [9]): did not cross react
B3: SABA3.1: His-tagged SABA3 sequence (protein)
chain: MGVSDVPRDLEVVAATPTSLLISWSNDGPGLSYYRITYGETGGNSPVQEFTVPSSQTTATISGLKPGVDYTITVYAVSYYTKKAYSAGPISINYRTEIDKPSQHHHHHH
modifications: His6 tag
SEC Dimer (%) [7]: BLD | SEC Monomer (%) [7]: 99% | DSC (Tm) [8]: 65.2 °C | PK (T½) Mice ([11]; co-injected with HSA): 0.533 h | PK (T½) Mice [11, 13]: 0.53 h | half-life in mice plasma [11]: 0.28 h | Comments: T½ in mice in words ([11]; mouse, in vivo): Poor T½ observed in mice | increase in half life when co-injected with HSA [11]: ~2 fold

Comments: binding affinity for RhSA (RhSA): Poor binding affinity for RhSA. | cross reaction with RhSA (RhSA): cross reacted | cross reaction with MuSA (MuSA [9]): did not cross react | Comments: decrease in KD observed at pH <6.0 (HSA [10]; pH <6.0): >2-fold decrease in KD observed at
B4: SABA5.1: His-tagged SABA5 sequence (protein)
chain: MGVSDVPRDLEVVAATPTSLLISWEDDSYYSRYYRITYGETGGNSPVQEFTVPSDLYTATISGLKPGVDYTITVYAVTYDVTDLIMHEPISINYRTEIDKPSQHHHHHH
modifications: His6 tag
AUCall ([6]; Mean, N 2): 246.882 µg·h/mL | Cl_obs ([6]; Mean, N 2): 4.089 mL/h/kg | Cmax ([6]; Mean, N 2): 17358 ng/mL | HL_Lambda_z ([6]; Mean, N 2): 12.186 h | Vz_obs ([6]; Mean, N 2): 0.072507 L/kg | SEC Dimer (%) [7]: 12% | SEC Monomer (%) [7]: 88% | DSC (Tm) [8]: 70.1 °C | PK (T½) Mice [11, 13]: 4.6 h
